# Laboratory results from IntAct's records for PubMed 19264781.
# B1: Protein Vpx (Simian immunodeficiency virus (isolate PBj14/BCL-3)), P19508 (parent)
# chain: MSDPRERIPPGNSGEETIGEAFDWLDRTVEEINRAAVNHLPRELIFQVWRRSWEYWHDEMGMSVSYTKYRYLCLIQKAMFMHCKKGCRCLGGEHGAGGWRPGPPPPPPPGLA
# B2: Protein Vpx (Human immunodeficiency virus type 2 subtype A (isolate Ghana-1)), P18045 (parent)
# chain: MTDPRERVPPGNSGEETIGEAFEWLDRTIEALNREAVNHLPRELIFQVWQRSWRYWHDDQGMSPSYTKYRYLCLMQKAVFIHFKRGCTCLGGGHGPGGWRSGPPPPPPPGLV
# Variants of: B1
# Conditions: with dcaf1_human DCAF1, Q9Y4B6
row,Variant,effect of a mutation on the interaction
1,K77A,disrupting interaction

# Variants of: B1
# Conditions: with dcaf1_human DCAF1, Q9Y4B6
# Remark: another data set of the same source
# Target sequence in this assay (Q9Y4B6 whole entry): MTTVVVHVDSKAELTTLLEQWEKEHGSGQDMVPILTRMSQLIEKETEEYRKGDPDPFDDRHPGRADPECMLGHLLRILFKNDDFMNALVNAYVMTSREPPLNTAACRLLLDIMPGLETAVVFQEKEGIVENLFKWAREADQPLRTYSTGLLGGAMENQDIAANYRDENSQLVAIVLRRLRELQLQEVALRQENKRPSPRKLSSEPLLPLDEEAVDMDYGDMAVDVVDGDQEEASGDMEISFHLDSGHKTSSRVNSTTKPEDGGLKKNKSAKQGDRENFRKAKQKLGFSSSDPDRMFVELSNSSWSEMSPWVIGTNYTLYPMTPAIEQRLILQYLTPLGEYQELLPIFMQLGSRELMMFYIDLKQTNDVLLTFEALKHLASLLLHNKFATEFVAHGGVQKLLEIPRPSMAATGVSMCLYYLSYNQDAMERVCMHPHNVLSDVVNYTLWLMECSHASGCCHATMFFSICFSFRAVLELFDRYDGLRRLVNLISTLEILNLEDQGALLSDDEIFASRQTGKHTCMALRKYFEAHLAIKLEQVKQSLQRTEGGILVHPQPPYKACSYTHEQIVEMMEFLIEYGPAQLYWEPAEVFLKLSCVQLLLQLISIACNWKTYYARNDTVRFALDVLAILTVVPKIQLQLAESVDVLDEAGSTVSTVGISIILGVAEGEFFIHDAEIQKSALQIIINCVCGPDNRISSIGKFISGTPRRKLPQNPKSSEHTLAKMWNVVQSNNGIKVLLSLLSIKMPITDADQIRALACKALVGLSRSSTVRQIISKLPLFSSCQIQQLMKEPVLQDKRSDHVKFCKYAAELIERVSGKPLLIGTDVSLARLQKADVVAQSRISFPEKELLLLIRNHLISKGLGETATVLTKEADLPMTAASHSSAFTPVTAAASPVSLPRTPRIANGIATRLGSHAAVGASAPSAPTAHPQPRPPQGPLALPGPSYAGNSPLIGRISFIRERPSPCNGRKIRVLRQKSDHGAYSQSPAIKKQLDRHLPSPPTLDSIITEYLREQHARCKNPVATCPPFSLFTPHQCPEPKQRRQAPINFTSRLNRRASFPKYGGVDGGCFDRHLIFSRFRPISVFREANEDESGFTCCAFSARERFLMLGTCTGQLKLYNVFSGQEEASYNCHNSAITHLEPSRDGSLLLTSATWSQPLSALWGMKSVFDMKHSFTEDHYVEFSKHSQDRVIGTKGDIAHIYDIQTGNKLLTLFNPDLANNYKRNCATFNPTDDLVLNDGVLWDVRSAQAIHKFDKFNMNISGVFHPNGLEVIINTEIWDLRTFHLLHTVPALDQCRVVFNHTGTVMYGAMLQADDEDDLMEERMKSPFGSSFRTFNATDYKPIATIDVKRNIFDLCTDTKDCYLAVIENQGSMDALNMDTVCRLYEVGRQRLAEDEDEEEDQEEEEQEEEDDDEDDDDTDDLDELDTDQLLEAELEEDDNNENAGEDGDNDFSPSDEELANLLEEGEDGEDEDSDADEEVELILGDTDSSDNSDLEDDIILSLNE
row,Variant,effect of a mutation on the interaction
1,Q76R,disrupting interaction

# Variants of: B2
# Conditions: with dcaf1_human DCAF1, Q9Y4B6
# Target sequence in this assay (Q9Y4B6 whole entry): as above
row,Variant,effect of a mutation on the interaction
1,Q76R,disrupting interaction
